Numbering of substitutions follows the chain as printed.
Experiments:
[1] = target: T1, TUT1_ΔN (form-II crystal) (Homo sapiens, UniProt Q9H6E5, DEL235-304/C372A/C399A/C415A/C501A/C504S/C574A/DEL651-750); test: X-ray crystal structure (soak), […] Å; assay type: binding; settings: Mg2+; 10 mM ATP, 20 mM MgCl2; incoming nucleotide site
T1 construct: gene TUT1; palm, fingers and KA-1 domains; residues 1-140, 235-304 and 651-750 removed; cysteine mutations (order of the two mutation sets read as form-I, form-II); pET22b His tag, E. coli
T1 sequence (Q9H6E5 with tags, fused parts or gaps DEL235-304/C372A/C399A/C415A/C501A/C504S/C574A/DEL651-750): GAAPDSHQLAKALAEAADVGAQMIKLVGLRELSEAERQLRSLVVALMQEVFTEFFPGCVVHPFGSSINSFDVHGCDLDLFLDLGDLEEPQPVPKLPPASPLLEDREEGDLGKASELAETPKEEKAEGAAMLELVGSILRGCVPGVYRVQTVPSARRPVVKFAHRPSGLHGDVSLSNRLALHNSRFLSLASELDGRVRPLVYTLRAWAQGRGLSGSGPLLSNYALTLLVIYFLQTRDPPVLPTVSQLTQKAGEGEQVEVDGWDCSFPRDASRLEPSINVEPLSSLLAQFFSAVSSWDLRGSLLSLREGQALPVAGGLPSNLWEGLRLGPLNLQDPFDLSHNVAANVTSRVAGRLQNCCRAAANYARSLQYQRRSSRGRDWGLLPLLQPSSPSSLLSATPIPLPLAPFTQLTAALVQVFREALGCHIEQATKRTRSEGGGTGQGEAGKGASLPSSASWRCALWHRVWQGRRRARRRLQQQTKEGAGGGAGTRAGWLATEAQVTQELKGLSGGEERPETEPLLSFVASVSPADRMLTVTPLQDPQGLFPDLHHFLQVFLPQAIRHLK

[2] = target: T2, TUT1_ΔN (form-I crystal) (Homo sapiens, UniProt Q9H6E5, DEL235-304/C372A/C415A/C501A/C504S/DEL651-750); test: X-ray crystal structure (soak), […] Å; assay type: binding; settings: Ba2+; 2 mM UTP, 4 mM BaCl2; incoming nucleotide site
T2 construct: gene TUT1; palm, fingers and KA-1 domains; residues 1-140, 235-304 and 651-750 removed; cysteine mutations (order of the two mutation sets read as form-I, form-II); pET22b His tag, E. coli
T2 sequence (Q9H6E5 with tags, fused parts or gaps DEL235-304/C372A/C415A/C501A/C504S/DEL651-750): T1 sequence (Q9H6E5 with tags, fused parts or gaps DEL235-304/C372A/C399A/C415A/C501A/C504S/C574A/DEL651-750) with A189C, A364C

[3] = target: T1, TUT1_ΔN (form-II crystal); test: X-ray crystal structure (soak), […] Å; assay type: binding; settings: Mg2+; 2 mM UTP, 4 mM MgCl2; incoming nucleotide site
[4] = substrate: O=c1ccn([C@@H]2O[C@H](COP(=O)(O)OP(=O)(O)OP(=O)(O)O)[C@@H](O)[C@H]2O)c(=O)[nH]1; test: purified protein; assay type: biochemical, Homo sapiens; settings: co-substrate 1 μM U6 snRNA-u4, 10 mM MgCl2, 100 mM NaCl, pH 8.5, 37 °C
[5] = substrate: Nc1ncnc2c1ncn2[C@@H]1O[C@H](COP(=O)(O)OP(=O)(O)OP(=O)(O)O)[C@@H](O)[C@H]1O; test: purified protein; assay type: biochemical, Homo sapiens; settings: co-substrate 1 μM U6 snRNA-u4, 10 mM MgCl2, 100 mM NaCl, pH 8.5, 37 °C

Nc1ncnc2c1ncn2[C@@H]1O[C@H](COP(=O)(O)OP(=O)(O)OP(=O)(O)O)[C@@H](O)[C@H]1O [ATP]
X-ray crystal structure (soak), 2.8 Å [1]: form-II TUT1_ΔN with UTP and ATP soaked in were also analysed

O=c1ccn([C@@H]2O[C@H](COP(=O)(O)OP(=O)(O)OP(=O)(O)O)[C@@H](O)[C@H]2O)c(=O)[nH]1 [UTP]
X-ray crystal structure (soak), 2.95 Å [2]: The form-I TUT1_ΔN structure complexed with UTP (soaked in) was initially solved
X-ray crystal structure (soak), 2.7 Å [3]: form-II TUT1_ΔN with UTP and ATP soaked in were also analysed

B1: human TUT1 (full-length, wild-type) (Homo sapiens) (protein)
chain: MAAVDSDVESLPRGGFRCCLCHVTTANRPSLDAHLGGRKHRHLVELRAARKAQGLRSVFVSGFPRDVDSAQLSEYFLAFGPVASVVMDKDKGVFAIVEMGDVGAREAVLSQSQHSLGGHRLRVRPREQKEFQSPASKSPKGAAPDSHQLAKALAEAADVGAQMIKLVGLRELSEAERQLRSLVVALMQEVFTEFFPGCVVHPFGSSINSFDVHGCDLDLFLDLGDLEEPQPVPKAPESPSLDSALASPLDPQALACTPASPPDSQPPASPQDSEALDFETPSSSLAPQTPDSALASETLASPQSLPPASPLLEDREEGDLGKASELAETPKEEKAEGAAMLELVGSILRGCVPGVYRVQTVPSARRPVVKFCHRPSGLHGDVSLSNRLALHNSRFLSLCSELDGRVRPLVYTLRCWAQGRGLSGSGPLLSNYALTLLVIYFLQTRDPPVLPTVSQLTQKAGEGEQVEVDGWDCSFPRDASRLEPSINVEPLSSLLAQFFSCVSCWDLRGSLLSLREGQALPVAGGLPSNLWEGLRLGPLNLQDPFDLSHNVAANVTSRVAGRLQNCCRAAANYCRSLQYQRRSSRGRDWGLLPLLQPSSPSSLLSATPIPLPLAPFTQLTAALVQVFREALGCHIEQATKRTRSEGGGTGESSQGGTSKRLKVDGQKNCCEEGKEEQQGCAGDGGEDRVEEMVIEVGEMVQDWAMQSPGQPGDLPLTTGKHGAPGEEGQPSHAALAERGPKGHEAAQEWSQGEAGKGASLPSSASWRCALWHRVWQGRRRARRRLQQQTKEGAGGGAGTRAGWLATEAQVTQELKGLSGGEERPETEPLLSFVASVSPADRMLTVTPLQDPQGLFPDLHHFLQVFLPQAIRHLK
notes: full-length 1-874, synthetic codon-optimised gene, pET22b (His tag, no cleavage told), E. coli BL21(DE3), Ni-NTA/heparin/Superdex 200
Km [4]: 59 µM
kcat [4]: 0.059 s^–1
Km [5]: 1,380 μM
kcat [5]: 0.002 s^–1

From paper PMC5467268, “Crystal structures of U6 snRNA-specific terminal uridylyltransferase” (Nature Communications, 2017)
